Data published in US20230167174A1.

Assays:
[1] = target: cyTREM2 ECD (19-174)-hFc (cynomolgus); test: recombinant protein binding
[2] = target: T1, hTREM2 IgSF-hTREM1 stalk-hFc (human) (UniProt Q9NZC2); test: recombinant protein binding
T1 sequence (looked up): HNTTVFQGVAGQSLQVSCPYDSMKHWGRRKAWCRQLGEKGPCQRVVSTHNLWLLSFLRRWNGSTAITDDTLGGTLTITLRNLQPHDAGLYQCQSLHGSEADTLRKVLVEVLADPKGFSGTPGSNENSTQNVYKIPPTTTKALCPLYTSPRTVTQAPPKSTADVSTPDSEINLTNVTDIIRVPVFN

[3] = target: T2, hTREM2 ECD (19-174)-hFc (human) (UniProt Q9NZC2); test: recombinant protein binding
T2 sequence (chain, biotinylated where printed -bio): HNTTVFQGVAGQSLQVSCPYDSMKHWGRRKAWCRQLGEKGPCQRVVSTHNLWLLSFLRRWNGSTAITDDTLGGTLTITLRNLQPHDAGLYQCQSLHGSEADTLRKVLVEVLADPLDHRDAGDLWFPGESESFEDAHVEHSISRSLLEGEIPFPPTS

[4] = target: T3, human TREM2 on CHO-hDAP12-hTREM2 cells (human) (UniProt Q9NZC2); test: FACS, CHO-hTREM2
T3 sequence: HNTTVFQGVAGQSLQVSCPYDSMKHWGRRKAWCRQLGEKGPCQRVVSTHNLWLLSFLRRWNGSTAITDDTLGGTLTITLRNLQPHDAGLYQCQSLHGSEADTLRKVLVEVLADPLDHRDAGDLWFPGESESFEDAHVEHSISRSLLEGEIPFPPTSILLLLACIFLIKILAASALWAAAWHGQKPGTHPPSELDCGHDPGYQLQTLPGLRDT

[5] = target: T4, human TREM2 endogenously expressed (hM2A macrophages, THP1-B5 cells, iPS derived microglia) (human) (UniProt Q9NZC2); test: cell-based or functional assay
T4 sequence (looked up): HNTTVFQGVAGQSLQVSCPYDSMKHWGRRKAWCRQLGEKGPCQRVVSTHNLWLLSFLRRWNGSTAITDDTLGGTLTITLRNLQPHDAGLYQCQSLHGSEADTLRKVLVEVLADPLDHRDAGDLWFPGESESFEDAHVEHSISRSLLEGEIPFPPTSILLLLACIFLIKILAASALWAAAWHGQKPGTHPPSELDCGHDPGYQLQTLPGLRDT

[6] = target: T3, human TREM2 on CHO-hDAP12-hTREM2 cells (human); test: cell-based or functional assay
[7] = target: T2, hTREM2 ECD (19-174)-hFc (human); test: SET screening
[8] = target: cynomolgus TREM2 on CHO-hDAP12-cyTREM2 cells (cynomolgus); test: FACS, CHO-cyTREM2
[9] = target: T4, human TREM2 endogenously expressed (hM2A macrophages, THP1-B5 cells, iPS derived microglia) (human); test: FACS, hM2A, donor 2
[10] = target: T4, human TREM2 endogenously expressed (hM2A macrophages, THP1-B5 cells, iPS derived microglia) (human); test: FACS, hM2A, donor 1
[11] = target: T4, human TREM2 endogenously expressed (hM2A macrophages, THP1-B5 cells, iPS derived microglia) (human); test: FACS, hM2A, donor 3
[12] = target: T4, human TREM2 endogenously expressed (hM2A macrophages, THP1-B5 cells, iPS derived microglia) (human); test: FACS, hM2A, median of 4 donors
[13] = target: T2, hTREM2 ECD (19-174)-hFc (human); test: SPR, label free kinetics
[14] = target: cyTREM2 ECD (19-174)-APP-Avi (cynomolgus); test: SPR, label free kinetics
[15] = target: T4, human TREM2 endogenously expressed (hM2A macrophages, THP1-B5 cells, iPS derived microglia) (human); test: FACS, hM2A, donor 4
[16] = target: T2, hTREM2 ECD (19-174)-hFc (human); test: SET
[17] = target: cyTREM2 ECD (19-174)-APP-Avi (cynomolgus); test: SET
[18] = target: T4, human TREM2 endogenously expressed (hM2A macrophages, THP1-B5 cells, iPS derived microglia) (human); test: FACS, hM2A

Sequence of cynomolgus TREM2 on CHO-hDAP12-cyTREM2 cells (cynomolgus) (chain, as listed by the source): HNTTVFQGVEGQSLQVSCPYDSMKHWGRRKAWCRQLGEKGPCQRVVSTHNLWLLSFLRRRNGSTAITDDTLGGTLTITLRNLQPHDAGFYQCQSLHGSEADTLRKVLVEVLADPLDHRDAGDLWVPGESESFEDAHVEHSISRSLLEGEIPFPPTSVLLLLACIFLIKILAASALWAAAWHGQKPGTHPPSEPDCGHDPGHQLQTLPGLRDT

B1: MOR044746 (antibody, from a related filing, V domains shown)
VH: QVQLQQSGPGLVKPSQTLSLTCAISGDSVSSSSAAWNWIRQSPSRGLEWLGHIGYRSKWYNEYAVSVKSRITINPDTSKNQFSLQLNSVTPEDTAVYYCARGMYGSVPYKEGYYFDIWGQGTLVTVSS
VL: DIQMTQSPSSLSASVGDRVTITCRASQGISSDLNWYQQKPGKAPKLLIYAASNLQSGVPSRFSGSGSGTDFTLTISSLQPEDFATYYCQQYTDESMTFGQGTKVEIK
S/BG [1]: > 5
S/BG [2]: > 20
S/BG [3]: > 5
EC50 [4]: 0.16 nM
Fold TREM2 cell surface increase compared to isotype (hM2A, 100 nM) [5]: 5.1 fold
TREM2 activation (fold in RGA) [5]: 1.3 fold
lowest active concentration, phagocytosis in hM2A [5]: 1 nM
Internalization compared to parental after 6 h [6]: 0.7 fold
Internalization; fold over background after 6 h [6]: 33.3 fold
Kd [7]: < 0.6 nM
EC50 [8]: 0.65 nM
EC50 [9]: 0.54 nM
EC50 [10]: 0.73 nM
EC50 [11]: 0.54 nM
EC50 [12]: 0.59 nM
Kd [13]: 0.003 nM
Kd [14]: 0.004 nM
EC50 [15]: 0.64 nM
Kd [16]: 0.003 nM
Kd [17]: 0.004 nM
EC50 [18]: < 2 nM
